Results as given in patent publication US20260028403A1 (Zymeworks, published 2026).

Target: huCD28 (human, UniProt P10747 19-152, limits assumed)
Assay: SPR, OAA format

Fold-change from WT [fold] | Kd [nM] | koff [s⁻¹] | kon [M⁻¹ s⁻¹] | Binder
1.93 | 170 | 0.0117 | 70800 | v37878 (antibody, V domains shown, OAA format as v34891; also called huTN228 K1109A (VL) OAA) VH: QVQLQESGPGLVKPSETLSLTCAVSGFSLTSYGVHWIRQPPGKGLEWLGVIWPGGGTNFNSALMSRLTISEDTSKNQVSLKLSSVTAADTAVYYCARDRAYGNYLYAMDYWGQGTLVTVSS VL: DIQMTQSPSSLSASVGDRVTITCRASESVEYYVTSLMQWYQQKPGKAPKLLIYAASNVDSGVPSRFSGSGSGTDFTLTISSLQPEDIATYYCQQSRAVPFTFGGGTKVEIK
0.59 | 52.1 | 0.00321 | 61800 | v37874 (antibody, V domains shown, OAA format; also called huTN228 N1066A (VL) OAA) VH: QVQLQESGPGLVKPSETLSLTCAVSGFSLTSYGVHWIRQPPGKGLEWLGVIWPGGGTNFNSALMSRLTISEDTSKNQVSLKLSSVTAADTAVYYCARDRAYGNYLYAMDYWGQGTLVTVSS VL: DIQMTQSPSSLSASVGDRVTITCRASESVEYYVTSLMQWYQQKPGKAPKLLIYAASAVDSGVPSRFSGSGSGTDFTLTISSLQPEDIATYYCQQSRKVPFTFGGGTKVEIK
0.53 | 46.6 | 0.00315 | 67600 | v37875 (antibody, V domains shown, OAA format as v34891; also called huTN228 D1068A (VL) OAA) VH: QVQLQESGPGLVKPSETLSLTCAVSGFSLTSYGVHWIRQPPGKGLEWLGVIWPGGGTNFNSALMSRLTISEDTSKNQVSLKLSSVTAADTAVYYCARDRAYGNYLYAMDYWGQGTLVTVSS VL: DIQMTQSPSSLSASVGDRVTITCRASESVEYYVTSLMQWYQQKPGKAPKLLIYAASNVASGVPSRFSGSGSGTDFTLTISSLQPEDIATYYCQQSRKVPFTFGGGTKVEIK
0.64 | 56.4 | 0.00326 | 57800 | v37876 (antibody, V domains shown, OAA format as v34891; also called huTN228 S1069A (VL) OAA) VH: QVQLQESGPGLVKPSETLSLTCAVSGFSLTSYGVHWIRQPPGKGLEWLGVIWPGGGTNFNSALMSRLTISEDTSKNQVSLKLSSVTAADTAVYYCARDRAYGNYLYAMDYWGQGTLVTVSS VL: DIQMTQSPSSLSASVGDRVTITCRASESVEYYVTSLMQWYQQKPGKAPKLLIYAASNVDAGVPSRFSGSGSGTDFTLTISSLQPEDIATYYCQQSRKVPFTFGGGTKVEIK
3.08 | 271 | 0.0258 | 96800 | v37870 (antibody, V domains shown, OAA format as v34891; also called huTN228 T1036A (VL) OAA) VH: QVQLQESGPGLVKPSETLSLTCAVSGFSLTSYGVHWIRQPPGKGLEWLGVIWPGGGTNFNSALMSRLTISEDTSKNQVSLKLSSVTAADTAVYYCARDRAYGNYLYAMDYWGQGTLVTVSS VL: DIQMTQSPSSLSASVGDRVTITCRASESVEYYVASLMQWYQQKPGKAPKLLIYAASNVDSGVPSRFSGSGSGTDFTLTISSLQPEDIATYYCQQSRKVPFTFGGGTKVEIK
4.9 | 431 | 0.0277 | 67700 | v37869 (antibody, V domains shown, OAA format as v34891; also called huTN228 V1035A (VL) OAA) VH: QVQLQESGPGLVKPSETLSLTCAVSGFSLTSYGVHWIRQPPGKGLEWLGVIWPGGGTNFNSALMSRLTISEDTSKNQVSLKLSSVTAADTAVYYCARDRAYGNYLYAMDYWGQGTLVTVSS VL: DIQMTQSPSSLSASVGDRVTITCRASESVEYYATSLMQWYQQKPGKAPKLLIYAASNVDSGVPSRFSGSGSGTDFTLTISSLQPEDIATYYCQQSRKVPFTFGGGTKVEIK

The next lines start with the binder.

Binder | Fold-change from WT [fold] | Kd [nM] | koff [s⁻¹] | kon [M⁻¹ s⁻¹]
v34891 (parental huTN228 OAA) (antibody, V domains shown, one-arm Fab antibody (OAA) format; also called huTN228 parental one-arm Fab antibody) VH: QVQLQESGPGLVKPSETLSLTCAVSGFSLTSYGVHWIRQPPGKGLEWLGVIWPGGGTNFNSALMSRLTISEDTSKNQVSLKLSSVTAADTAVYYCARDRAYGNYLYAMDYWGQGTLVTVSS VL: DIQMTQSPSSLSASVGDRVTITCRASESVEYYVTSLMQWYQQKPGKAPKLLIYAASNVDSGVPSRFSGSGSGTDFTLTISSLQPEDIATYYCQQSRKVPFTFGGGTKVEIK | 1 | 87.9 | 0.00319 | 36300
v37858 (antibody, V domains shown, OAA format as v34891; also called huTN228 L1112AA (VH) OAA) VH: QVQLQESGPGLVKPSETLSLTCAVSGFSLTSYGVHWIRQPPGKGLEWLGVIWPGGGTNFNSALMSRLTISEDTSKNQVSLKLSSVTAADTAVYYCARDRAYGNYAYAMDYWGQGTLVTVSS VL: DIQMTQSPSSLSASVGDRVTITCRASESVEYYVTSLMQWYQQKPGKAPKLLIYAASNVDSGVPSRFSGSGSGTDFTLTISSLQPEDIATYYCQQSRKVPFTFGGGTKVEIK | 3.91 | 344 | 0.0221 | 64700
v37854 (antibody, V domains shown, OAA format as v34891; also called huTN228 Y1110A (VH) OAA) VH: QVQLQESGPGLVKPSETLSLTCAVSGFSLTSYGVHWIRQPPGKGLEWLGVIWPGGGTNFNSALMSRLTISEDTSKNQVSLKLSSVTAADTAVYYCARDRAAGNYLYAMDYWGQGTLVTVSS VL: DIQMTQSPSSLSASVGDRVTITCRASESVEYYVTSLMQWYQQKPGKAPKLLIYAASNVDSGVPSRFSGSGSGTDFTLTISSLQPEDIATYYCQQSRKVPFTFGGGTKVEIK | 0.9 | 79 | 0.0034 | 43200
v37844 (antibody, V domains shown, OAA format as v34891; also called huTN228 S1036A (VH) OAA) VH: QVQLQESGPGLVKPSETLSLTCAVSGFSLTAYGVHWIRQPPGKGLEWLGVIWPGGGTNFNSALMSRLTISEDTSKNQVSLKLSSVTAADTAVYYCARDRAYGNYLYAMDYWGQGTLVTVSS VL: DIQMTQSPSSLSASVGDRVTITCRASESVEYYVTSLMQWYQQKPGKAPKLLIYAASNVDSGVPSRFSGSGSGTDFTLTISSLQPEDIATYYCQQSRKVPFTFGGGTKVEIK | 0.7 | 61.6 | 0.00313 | 50800
v37855 (antibody, V domains shown, OAA format as v34891; also called huTN228 G1111A (VH) OAA) VH: QVQLQESGPGLVKPSETLSLTCAVSGFSLTSYGVHWIRQPPGKGLEWLGVIWPGGGTNFNSALMSRLTISEDTSKNQVSLKLSSVTAADTAVYYCARDRAYANYLYAMDYWGQGTLVTVSS VL: DIQMTQSPSSLSASVGDRVTITCRASESVEYYVTSLMQWYQQKPGKAPKLLIYAASNVDSGVPSRFSGSGSGTDFTLTISSLQPEDIATYYCQQSRKVPFTFGGGTKVEIK | 0.84 | 73.7 | 0.00342 | 46400
v37843 (antibody, V domains shown, OAA format as v34891; also called huTN228 T1035A (VH) OAA) VH: QVQLQESGPGLVKPSETLSLTCAVSGFSLASYGVHWIRQPPGKGLEWLGVIWPGGGTNFNSALMSRLTISEDTSKNQVSLKLSSVTAADTAVYYCARDRAYGNYLYAMDYWGQGTLVTVSS VL: DIQMTQSPSSLSASVGDRVTITCRASESVEYYVTSLMQWYQQKPGKAPKLLIYAASNVDSGVPSRFSGSGSGTDFTLTISSLQPEDIATYYCQQSRKVPFTFGGGTKVEIK | 0.73 | 64 | 0.00301 | 47100
v37847 (antibody, V domains shown, OAA format; also called huTN228 P1058A (VH) OAA) VH: QVQLQESGPGLVKPSETLSLTCAVSGFSLTSYGVHWIRQPPGKGLEWLGVIWAGGGTNFNSALMSRLTISEDTSKNQVSLKLSSVTAADTAVYYCARDRAYGNYLYAMDYWGQGTLVTVSS VL: DIQMTQSPSSLSASVGDRVTITCRASESVEYYVTSLMQWYQQKPGKAPKLLIYAASNVDSGVPSRFSGSGSGTDFTLTISSLQPEDIATYYCQQSRKVPFTFGGGTKVEIK | 1.39 | 122 | 0.00626 | 51100
v37856 (antibody, V domains shown, OAA format; also called huTN228 N1111AA (VH) OAA) VH: QVQLQESGPGLVKPSETLSLTCAVSGFSLTSYGVHWIRQPPGKGLEWLGVIWPGGGTNFNSALMSRLTISEDTSKNQVSLKLSSVTAADTAVYYCARDRAYGAYLYAMDYWGQGTLVTVSS VL: DIQMTQSPSSLSASVGDRVTITCRASESVEYYVTSLMQWYQQKPGKAPKLLIYAASNVDSGVPSRFSGSGSGTDFTLTISSLQPEDIATYYCQQSRKVPFTFGGGTKVEIK | 6.16 | 542 | 0.0254 | 47100
v37851 (antibody, V domains shown, OAA format as v34891; also called huTN228 N1066A (VH) OAA) VH: QVQLQESGPGLVKPSETLSLTCAVSGFSLTSYGVHWIRQPPGKGLEWLGVIWPGGGTAFNSALMSRLTISEDTSKNQVSLKLSSVTAADTAVYYCARDRAYGNYLYAMDYWGQGTLVTVSS VL: DIQMTQSPSSLSASVGDRVTITCRASESVEYYVTSLMQWYQQKPGKAPKLLIYAASNVDSGVPSRFSGSGSGTDFTLTISSLQPEDIATYYCQQSRKVPFTFGGGTKVEIK | 4.69 | 412 | 0.037 | 90900
v37841 (antibody, V domains shown, OAA format as v34891; also called huTN228 S1029A (VH) OAA) VH: QVQLQESGPGLVKPSETLSLTCAVSGFALTSYGVHWIRQPPGKGLEWLGVIWPGGGTNFNSALMSRLTISEDTSKNQVSLKLSSVTAADTAVYYCARDRAYGNYLYAMDYWGQGTLVTVSS VL: DIQMTQSPSSLSASVGDRVTITCRASESVEYYVTSLMQWYQQKPGKAPKLLIYAASNVDSGVPSRFSGSGSGTDFTLTISSLQPEDIATYYCQQSRKVPFTFGGGTKVEIK | 0.72 | 63.4 | 0.00322 | 51100
v37868 (antibody, V domains shown, OAA format as v34891; also called huTN228 Y1034A (VL) OAA) VH: QVQLQESGPGLVKPSETLSLTCAVSGFSLTSYGVHWIRQPPGKGLEWLGVIWPGGGTNFNSALMSRLTISEDTSKNQVSLKLSSVTAADTAVYYCARDRAYGNYLYAMDYWGQGTLVTVSS VL: DIQMTQSPSSLSASVGDRVTITCRASESVEYAVTSLMQWYQQKPGKAPKLLIYAASNVDSGVPSRFSGSGSGTDFTLTISSLQPEDIATYYCQQSRKVPFTFGGGTKVEIK | 5.37 | 472 | 0.0601 | 126000
v37845 (antibody, V domains shown, OAA format; also called huTN228 Y1037A (VH) OAA) VH: QVQLQESGPGLVKPSETLSLTCAVSGFSLTSAGVHWIRQPPGKGLEWLGVIWPGGGTNFNSALMSRLTISEDTSKNQVSLKLSSVTAADTAVYYCARDRAYGNYLYAMDYWGQGTLVTVSS VL: DIQMTQSPSSLSASVGDRVTITCRASESVEYYVTSLMQWYQQKPGKAPKLLIYAASNVDSGVPSRFSGSGSGTDFTLTISSLQPEDIATYYCQQSRKVPFTFGGGTKVEIK | 2.81 | 247 | 0.0139 | 56600
